Reference: patent US20150266960A1 (University of Texas, published 2015)

B1: FcγRIIa-R131-GST (receptor, UniProt P12318 34-217, looked up)
chain: QAAAPPKAVLKLEPPWINVLQEDSVTLTCQGARSPESDSIQWFHNGNLIPTHTQPSYRFKANNNDSGEYTCQTGQTSLSDPVHLTVLSEWLVLQTPHLEFQEGETIMLRCHSWKDKPLVKVTFFQNGKSQKFSRLDPTFSIPQANHSHSGDYHCTGNIGYTLFSSKPVTITVQVPSMGSSSPMG
notes: R131 is an allele name counted on the mature protein; not shown: GST tag
B2: Mutant B (other)
Fc chain (hinge-CH2-CH3): DKTHTCPPCPAPELLGGPSVFLFPPKPKDTLMISRTPEVTCVVVDVSHEDPEVKFNWYVDGVEVHNAKTKPREEQYNSTYRVVSVLTVLHQDWLNGKEYKCKVSNKALPAPIEKTISKAKSGNTFRPEVHLLPPPSEELALNELVTLTCLARGFSPKDVLVRWLQGSQELPREKYLTWASRQEPSQGTTTFAVTSILRVAAEDWKKGDTFSCMVGHEALPLAFTQKTIDR
notes: Purified over Ni-NTA (His tag); also called Mutant B Fc domain; MutB
B3: Wild type IgA Fc domain (other)
chain: VPCPVPSTPPTPSPSTPPTPSPSCCHPRLSLHRPALEDLLLGSEANLTCTLTGLRDASGVTFTWTPSSGKSAVQGPPERDLCGCYSVSSVLPGCAEPWNHGKTFTCTAAYPESKTPLTATLSKSGNTFRPEVHLLPPPSEELALNELVTLTCLARGFSPKDVLVRWLQGSQELPREKYLTWASRQEPSQGTTTFAVTSILRVAAEDWKKGDTFSCMVGHEALPLAFTQKTIDR
notes: Template for the alanine scan; also called wild-type glycosylated IgA; IgA CH2 CH3

Tests used:
[1] = target: T1, FcαRI-GST (UniProt P24071 22-227, limits assumed); assay: SPR, antibody amine coupled, dimeric FcαRI-GST flowed, 2:1 bivalent analyte fit
T1 construct: extracellular domain; Made in HEK293F cells from pMaz-IgH-FcαRI-GST (dimeric expression) and purified on glutathione Sepharose; also called soluble dimeric FcαRI-GST; CD89; not shown: GST tag
T1 sequence (P24071 22-227 limits assumed): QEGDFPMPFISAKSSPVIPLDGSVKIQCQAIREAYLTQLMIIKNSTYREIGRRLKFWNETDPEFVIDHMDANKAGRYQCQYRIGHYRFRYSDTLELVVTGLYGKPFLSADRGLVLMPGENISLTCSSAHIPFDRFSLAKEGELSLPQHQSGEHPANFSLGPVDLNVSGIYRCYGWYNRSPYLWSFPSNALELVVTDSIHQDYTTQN

[2] = target: B3; assay: ELISA: Fc domain coated at 4 µg/mL, FcγRIIa-R131-GST in 1:4 serial dilution, anti-GST HRP, A450
Experimental: (§1) ELISA plates (Qiagen) were coated with 4 μg/mL of each of the mutant Fc domains in 1×PBS (pH 7.4) overnight at 4° C. The next day the plates were blocked for 2 hours at room temperature with 2% milk in 1×PBS containing 0.05% Tween (PBST) and washed three times in PBST at pH 7.4. To the first well, 66 μL of 20 μg/mL of either FcγRI-GST, FcγRI-GST, FcγRIIa-R131-GST, FcγRIIb-GST, or FcγRIIIa-F158-GST dissolved in PBS with 2% milk (PBSM) was added followed by 1:4 serial dilution. After 1 h of incubation at room temperature, the plates were washed and 50 μL PBSM was added containing 1:5000 goat anti-GST HRP (GE Healthcare) for 1 hour. To develop the plates, the wells were washed 3× with PBST, 50 μL TMB substrate was added per well (Thermo Scientific), 50 μL of 1 M H₂SO₄ was added to neutralize, and the absorbance at 450 nm was recorded.

[3] = target: T1, FcαRI-GST; assay: ELISA: Fc domain coated at 4 µg/mL, FcαRI-GST in 1:4 serial dilution, anti-GST HRP, A450
Experimental: as §1

[4] = target: T2, FcγRI-GST (UniProt P12314 16-292, limits assumed); assay: ELISA: Fc domain coated at 4 µg/mL, FcγRI-GST in 1:4 serial dilution, anti-GST HRP, A450
T2 construct: not shown: GST tag
T2 sequence (P12314 16-292 limits assumed): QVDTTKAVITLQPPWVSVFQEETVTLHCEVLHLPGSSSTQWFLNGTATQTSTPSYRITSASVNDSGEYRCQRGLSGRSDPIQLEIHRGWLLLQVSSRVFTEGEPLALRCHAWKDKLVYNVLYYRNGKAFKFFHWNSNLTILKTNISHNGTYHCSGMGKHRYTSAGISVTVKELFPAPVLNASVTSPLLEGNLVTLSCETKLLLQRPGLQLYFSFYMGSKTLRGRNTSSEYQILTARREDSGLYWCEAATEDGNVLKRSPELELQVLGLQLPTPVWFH
Experimental: as §1

For trastuzumab IgA (antibody), the Kd [1] was 500 nM.

B1: no binding [2].

B2: no binding [3].

B3: no binding [4].
